Measurements: US20220016127A1, “COMPOSITIONS AND METHODS FOR INDUCING APPENDAGE AND LIMB REGENERATION” (priority 2020, published 2022)

Tested on: Aurelia ephyra
Experiment: Arm regeneration induction in amputated Aurelia ephyrae
Assay type: in vivo, Aurelia aurita
Details: amputated ephyrae, factor added to artificial seawater upon amputation
Procedure: Amputation. Strobilated ephyrae were fed daily with rotifers (Brachionus plicatilis) until amputation time. 2-3 days old ephyrae were anesthetized in 400 μM menthol and amputated using a razor blade mounted on an x-acto knife handle. After amputation, ephyrae were let to recover in bubbler cones (FIG. 7). Regeneration was assessed at various times until 1-2 weeks after amputation, before onset of maturation to medusa.
Inducing regeneration. Experimental setup. 0.5-1 L sand settling cones were repurposed as jellyfish aquaria (Nalgene Imhoff; FIG. 7). Each cone was equipped with an airline from a Tetra Whisper air pump 100 to create a gentle vertical current (˜1 bubble/sec, see FIG. 30). The conical geometry eliminates stagnant spots, where the ephyrae could get stuck. In this “bubbler cone” setup, the ephyrae were continually in water current either in the upward air bubble-generated current or the downward self-generated current. 500 mL artificial seawater and 30 ephyrae were placed in each cone to avoid crowding and fouling. Artificial seawater was changed every week. Nutrients. […]
Amputation. […] Regeneration was assessed at various times for 1-2 weeks after amputation, before onset of maturation to medusa. […]

B1: Egf: protein tested in the screen (hEGF recombinant, Sigma E9644) (protein, UniProt P01133 23-1207, looked up)
Pro-epidermal growth factor: PQHWSCPEGTLAGNGNSTCVGPAPFLIFSHGNSIFRIDTEGTNYEQLVVDAGVSVIMDFHYNEKRIYWVDLERQLLQRVFLNGSRQERVCNIEKNVSGMAINWINEEVIWSNQQEGIITVTDMKGNNSHILLSALKYPANVAVDPVERFIFWSSEVAGSLYRADLDGVGVKALLETSEKITAVSLDVLDKRLFWIQYNREGSNSLICSCDYDGGSVHISKHPTQHNLFAMSLFGDRIFYSTWKMKTIWIANKHTGKDMVRINLHSSFVPLGELKVVHPLAQPKAEDDTWEPEQKLCKLRKGNCSSTVCGQDLQSHLCMCAEGYALSRDRKYCEDVNECAFWNHGCTLGCKNTPGSYYCTCPVGFVLLPDGKRCHQLVSCPRNVSECSHDCVLTSEGPLCFCPEGSVLERDGKTCSGCSSPDNGGCSQLCVPLSPVSWECDCFPGYDLQLDEKSCAASGPQPFLLFANSQDIRHMHFDGTDYGTLLSQQMGMVYALDHDPVENKIYFAHTALKWIERANMDGSQRERLIEEGVDVPEGLAVDWIGRRFYWTDRGKSLIGRSDLNGKRSKIITKENISQPRGIAVHPMAKRLFWTDTGINPRIESSSLQGLGRLVIASSDLIWPSGITIDFLTDKLYWCDAKQSVIEMANLDGSKRRRLTQNDVGHPFAVAVFEDYVWFSDWAMPSVMRVNKRTGKDRVRLQGSMLKPSSLVVVHPLAKPGADPCLYQNGGCEHICKKRLGTAWCSCREGFMKASDGKTCLALDGHQLLAGGEVDLKNQVTPLDILSKTRVSEDNITESQHMLVAEIMVSDQDDCAPVGCSMYARCISEGEDATCQCLKGFAGDGKLCSDIDECEMGVPVCPPASSKCINTEGGYVCRCSEGYQGDGIHCLDIDECQLGEHSCGENASCTNTEGGYTCMCAGRLSEPGLICPDSTPPPHLREDDHHYSVRNSDSECPLSHDGYCLHDGVCMYIEALDKYACNCVVGYIGERCQYRDLKWWELRHAGHGQQQKVIVVAVCVVVLVMLLLLSLWGAHYYRTQKLLSKNPKNPYEESSRDVRSRRPADTEDGMSSCPQPWFVVIKEHQDLKNGGQPVAGEDGQAADGSMQPTSWRQEPQLCGMGTEQGCWIPVSSDKGSCPQVMERSFHMPSYGTQTLEGGVEKPHSLLSANPLWQQRALDPPHQMELTQ
modifications: Pro-epidermal growth factor
With B1 the “effect on arm regeneration / regeneration frequency (in words)” value was “no effect”.
